Values belong to the binder of their own block, whether it stands above or below them.
Legend:
[1] = target: T1, AIM-II expressed on HEK 293 EBNA cells (UniProt O43557 1-240); assay: flow cytometry on AIM-II-transfected HEK 293 EBNA cells
T1 construct: whole, on cells
Description: For detecting Fc-fusion protein, cells were stained with FITC-conjugated goat anti-human IgG. […] The cells were analyzed by FACScan (Becton Dickinson).

[2] = target: T2, Full length TNF-gamma-beta on the cell surface (human, UniProt O95150 1-251); assay: flow cytometry on HEK293F cells expressing full length TNF-gamma-beta
T2 construct: whole, on cells; also called TNF-gamma-beta expressing cells
T2 sequence (looked up): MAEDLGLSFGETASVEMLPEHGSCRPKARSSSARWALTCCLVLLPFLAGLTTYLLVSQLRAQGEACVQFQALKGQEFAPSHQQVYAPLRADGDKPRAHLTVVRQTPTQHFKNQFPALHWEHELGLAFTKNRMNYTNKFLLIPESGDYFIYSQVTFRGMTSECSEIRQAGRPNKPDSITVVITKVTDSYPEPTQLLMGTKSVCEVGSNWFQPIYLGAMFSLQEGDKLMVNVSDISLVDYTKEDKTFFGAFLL

[3] = target: T3, Murine FasL expressed on murine L929 cells (mouse, UniProt P41047 1-279); assay: cell-based or functional assay
T3 sequence (looked up): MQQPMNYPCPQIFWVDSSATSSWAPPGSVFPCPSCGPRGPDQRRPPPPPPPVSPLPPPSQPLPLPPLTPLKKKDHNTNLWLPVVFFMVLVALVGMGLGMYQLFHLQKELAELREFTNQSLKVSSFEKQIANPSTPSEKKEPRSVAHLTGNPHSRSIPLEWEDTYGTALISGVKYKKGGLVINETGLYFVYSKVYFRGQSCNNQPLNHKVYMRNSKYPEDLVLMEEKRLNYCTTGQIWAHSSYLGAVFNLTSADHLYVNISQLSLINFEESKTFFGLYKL

[4] = target: T2, Full length TNF-gamma-beta on the cell …; assay: flow cytometry competition on TNF-gamma-beta expressing cells; competitor DR3-Fc
[5] = target: T4, Fas receptor on human cells (Jurkat, HT-29) (human, UniProt P25445 26-335); assay: cell-based or functional assay
T4 sequence (looked up): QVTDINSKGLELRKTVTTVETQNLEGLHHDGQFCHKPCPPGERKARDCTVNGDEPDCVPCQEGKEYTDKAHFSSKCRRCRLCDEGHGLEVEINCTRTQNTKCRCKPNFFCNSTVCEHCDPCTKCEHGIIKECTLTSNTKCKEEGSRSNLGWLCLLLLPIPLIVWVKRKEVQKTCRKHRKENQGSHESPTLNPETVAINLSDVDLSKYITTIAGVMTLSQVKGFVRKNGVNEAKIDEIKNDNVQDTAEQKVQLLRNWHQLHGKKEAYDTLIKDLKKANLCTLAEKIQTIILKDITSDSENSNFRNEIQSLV

T1 sequence (O43557 whole entry): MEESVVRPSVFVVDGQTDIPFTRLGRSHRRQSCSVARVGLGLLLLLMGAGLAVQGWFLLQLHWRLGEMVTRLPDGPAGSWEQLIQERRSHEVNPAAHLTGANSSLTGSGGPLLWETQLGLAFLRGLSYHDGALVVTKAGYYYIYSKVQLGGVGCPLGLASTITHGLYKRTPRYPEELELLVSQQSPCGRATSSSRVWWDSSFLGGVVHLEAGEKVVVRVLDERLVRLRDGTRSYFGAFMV

binding result [1]: binds
B1: HVEM/TR2-Fc (Fc fusion)
chain: LPSCKEDEYPVGSECCPKCSPGYRVKEACGELTGTVCEPCPPGTYIAHLNGLSKCLQCQMCDPAMGLRASRNCSRTENAVCGCSPGHFCIVQDGDHCAACRAYATSSPGQRVQKGGTESQDTLCQNCPPGTFSPNGTLEECQHQTKCSWLVTKAGAGTSSSHWV
notes: also called soluble form of HVEM/TR2-Fc; not shown: Fc portion

binding result [1]: binds
B3: LTβR-Fc (Fc fusion, UniProt P36941 31-227, looked up)
chain: QAVPPYASENQTCRDQEKEYYEPQHRICCSRCPPGTYVSAKCSRIRDTVCATCAENSYNEHWNYLTICQLCRPCDPVMGLEEIAPCTSKRKTQCRCQPGMFCAAWALECTHCELLSDCPPGTEAELKDEVGKGNNHCVPCKAGHFQNTSSPSARCQPHTRCENQGLVEAAPGTAQSDTTCKNPLEPLPPEMSGTMLM
notes: also called LTbetaR-Fc; LTBR-Fc; not shown: Fc portion

binding result [2]: no binding
B6: DcR1-Fc (Fc-fusion form of the extracellular domain) (Fc fusion, UniProt O14798 26-221, looked up)
chain: ATTARQEEVPQQTVAPQQQRHSFKGEECPAGSHRSEHTGACNPCTEGVDYTNASNNEPSCFPCTVCKSDQKHKSSCTMTRDTVCQCKEGTFRNENSPEMCRKCSRCPSGEVQVSNCTSWDDIQCVEEFGANATVETPAAEETMNTSPGTPAPAAEETMNTSPGTPAPAAEETMTTSPGTPAPAAEETMTTSPGTPA
notes: extracellular domain; not shown: Fc portion

increase in apoptotic Jurkat cells over untreated controls (annexin FACS) [5]: ~7 fold
B7: Soluble human FLAG-FasL (synthesized at HGS) (ligand, UniProt P48023 130-281, looked up, not shown: small tags and cut ends)
chain: QIGHPSPPPEKKELRKVAHLTGKSNSRSMPLEWEDTYGIVLLSGVKYKKGGLVINETGLYFVYSKVYFRGQSCNNLPLSHKVYMRNSKYPQDLVMMEGKMMSYCTTGQMWARSSYLGAVFNLTSADHLYVNVSELSLVNFEESQTFFGLYKL

More lines, now with the values behind:

B2: OPG-Fc (Fc-fusion form of the extracellular domain) (Fc fusion, UniProt O00300 22-194, looked up)
chain: ETFPPKYLHYDEETSHQLLCDKCPPGTYLKQHCTAKWKTVCAPCPDHYYTDSWHTSDECLYCSPVCKELQYVKQECNRTHNRVCECKEGRYLEIEFCLKHRSCPPGFGVVQAGTPERNTVCKRCPDGFFSNETSSKAPCRKHTNCSVFGLLLTQKGNATHDNICSGNSESTQK
notes: as for B6
binding result [2]: no binding

B4: TNFR6 alpha-Fc (full length TNFR-6 alpha, amino acids 1-300 of SEQ ID NO:2, fused to an Fc domain of human IgG1) (Fc fusion, not shown: a dimerising Fc or GST)
chain: VAETPTYPWRDAETGERLVCAQCPPGTFVQRPCRRDSPTTCGPCPPRHYTQFWNYLERCRYCNVLCGEREEEARACHATHNRACRCRTGFFAHAGFCLEHASCPPGAGVIAPGTPSQNTQCQPCPPGTFSASSSSSEQCQPHRNCTALGLALNVPGSSSHDTLCTSCTGFPLSTRVPGAEECERAVIDFVAFQDISIKRLQRLLQALEAPEGWGPTPRAGRAALQLKLRRRLTELLGAQDGALLVRLLQALRVARMPGLERSVRERFLPVH
potency relative to Fas-Fc, killing of A20 cells by murine FasL transfected L929 cells [3]: 100 fold

B5: TR6 (full-length human TNFR-6 alpha without Fc) (receptor)
chain: B4 chain
notes: Full-length cDNA (aa 1-300) expressed in Sf9 cells; also called TR6-non-Fc; TR6 non-Fc
molar ratio (TR6 to DR3-Fc) at which no DR3-Fc binding was detected [4]: 2 mol/mol
